Data from PMC9063426, “MAP kinases differentially bind and phosphorylate NOS3 via two unique NOS3 sites” (FEBS Open Bio, 2022).
Values belong to the binder of their own block, whether it stands above or below them. Where no end group is shown, it is not given here. The star is where a group is joined. Biotin = O=C1N[C@H]2[C@H](CS[C@H]2CCCCC(=O)*)N1

B5: NOS3 (bovine), full-length (enzyme, UniProt P29473 1-1205, looked up)
chain: MGNLKSVGQEPGPPCGLGLGLGLGLCGKQGPASPAPEPSRAPAPATPHAPDHSPAPNSPTLTRPPEGPKFPRVKNWELGSITYDTLCAQSQQDGPCTPRCCLGSLVLPRKLQTRPSPGPPPAEQLLSQARDFINQYYSSIKRSGSQAHEERLQEVEAEVASTGTYHLRESELVFGAKQAWRNAPRCVGRIQWGKLQVFDARDCSSAQEMFTYICNHIKYATNRGNLRSAITVFPQRAPGRGDFRIWNSQLVRYAGYRQQDGSVRGDPANVEITELCIQHGWTPGNGRFDVLPLLLQAPDEAPELFVLPPELVLEVPLEHPTLEWFAALGLRWYALPAVSNMLLEIGGLEFSAAPFSGWYMSTEIGTRNLCDPHRYNILEDVAVCMDLDTRTTSSLWKDKAAVEINLAVLHSFQLAKVTIVDHHAATVSFMKHLDNEQKARGGCPADWAWIVPPISGSLTPVFHQEMVNYILSPAFRYQPDPWKGSATKGAGITRKKTFKEVANAVKISASLMGTLMAKRVKATILYASETGRAQSYAQQLGRLFRKAFDPRVLCMDEYDVVSLEHEALVLVVTSTFGNGDPPENGESFAAALMEMSGPYNSSPRPEQHKSYKIRFNSVSCSDPLVSSWRRKRKESSNTDSAGALGTLRFCVFGLGSRAYPHFCAFARAVDTRLEELGGERLLQLGQGDELCGQEEAFRGWAKAAFQASCETFCVGEEAKAAAQDIFSPKRSWKRQRYRLSTQAEGLQLLPGLIHVHRRKMFQATVLSVENLQSSKSTRATILVRLDTAGQEGLQYQPGDHIGICPPNRPGLVEALLSRVEDPPPPTESVAVEQLEKGSPGGPPPSWVRDPRLPPCTLRQALTFFLDITSPPSPRLLRLLSTLAEEPSEQQELETLSQDPRRYEEWKWFRCPTLLEVLEQFPSVALPAPLLLTQLPLLQPRYYSVSSAPNAHPGEVHLTVAVLAYRTQDGLGPLHYGVCSTWLSQLKTGDPVPCFIRGAPSFRLPPDPYVPCILVGPGTGIAPFRGFWQERLHDIESKGLQPAPMTLVFGCRCSQLDHLYRDEVQDAQERGVFGRVLTAFSREPDSPKTYVQDILRTELAAEVHRVLCLERGHMFVCGDVTMATSVLQTVQRILATEGDMELDEAGDVIGVLRDQQRYHEDIFGLTLRTQEVTSRIRTQSFSLQERHLRGAVPWAFDPPGPDTPGP
notes: Nitric oxide synthase 3 (endothelial NOS), bovine, heterologously expressed; called full-length in the abstract and discussion; also called nitric oxide synthase 3; eNOS; source: E. coli BL21(DE3), purified
B7: Active GST-JNK1α1 (SignalChem) (enzyme, UniProt P45983-2 1-384, looked up)
chain: MSRSKRDNNFYSVEIGDSTFTVLKRYQNLKPIGSGAQGIVCAAYDAILERNVAIKKLSRPFQNQTHAKRAYRELVLMKCVNHKNIIGLLNVFTPQKSLEEFQDVYIVMELMDANLCQVIQMELDHERMSYLLYQMLCGIKHLHSAGIIHRDLKPSNIVVKSDCTLKILDFGLARTAGTSFMMTPYVVTRYYRAPEVILGMGYKENVDLWSVGCIMGEMVCHKILFPGRDYIDQWNKVIEQLGTPCPEFMKKLQPTVRTYVENRPKYAGYSFEKLFPDVLFPADSEHNKLKASQARDLLSKMLVIDASKRISVDEALQHPYINVWYDPSEAEAPPPKIPDKQLDEREHTIEEWKELIYKEVMDLEERTKNGVIRGQPSPLAQVQQ
modifications: active (phosphorylated) form, sites not given; biotin by amine crosslinking to NHS-LC-LC-biotin (5:1 biotin to protein)
notes: Biotinylated and held on streptavidin sensors for the NOS3 experiment; also called c-Jun N-terminal kinase; source: bought: SignalChem (JNK1, Lot #X561-2), GST-purified, active

Experiments:
Details in all cases: both partners purified
[1] = target: p38α, inactive (unphosphorylated), His-purified (UniProt Q16539 1-360); test: BLI; N-terminally biotinylated NOS3 peptides on streptavidin sensors, inactive MAP kinases as analytes at 31-1000 nM; 25 °C; PBS with 10% glycerol, 0.005% tween, 1 mM DTT; global one-state association-then-dissociation fit
[2] = target: p38α, inactive (unphosphorylated), His-purified (UniProt Q16539 1-360); test: BLI; N-terminally biotinylated NOS3 peptides on streptavidin sensors, inactive MAP kinases as analytes (31 to 1000 nM); 25 °C; PBS with 10% glycerol, 0.005% tween, 1 mM DTT; global one-state association-then-dissociation fit
Target sequence in this assay (Q16539 whole entry, the tested form may be a part): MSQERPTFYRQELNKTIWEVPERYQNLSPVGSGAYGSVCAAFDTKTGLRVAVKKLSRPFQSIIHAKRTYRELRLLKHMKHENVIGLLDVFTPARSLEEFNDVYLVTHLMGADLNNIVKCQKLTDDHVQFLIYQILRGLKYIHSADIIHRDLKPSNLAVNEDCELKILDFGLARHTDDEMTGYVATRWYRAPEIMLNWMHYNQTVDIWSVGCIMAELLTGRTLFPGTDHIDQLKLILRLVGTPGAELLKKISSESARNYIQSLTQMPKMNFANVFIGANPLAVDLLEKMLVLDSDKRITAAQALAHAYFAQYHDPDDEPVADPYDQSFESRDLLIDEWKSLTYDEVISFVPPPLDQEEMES

[3] = target: B7; test: BLI; biotinylated active GST-JNK1α1 (or the fusion partner alone as control) on streptavidin sensors, NOS3 as analyte at 25-800 nM; 25 °C; 50 mM Tris pH 7.4, 10 mM NaCl, 10% glycerol, 0.01% Tween-20; global one-state association-then-dissociation fit
[4] = target: T1, Nitric oxide synthase 3 (NOS3), bovine, full-length (bovine, UniProt P29473 1-1205); test: BLI; biotinylated active GST-JNK1α1 on streptavidin sensors, NOS3 as analyte (25 to 800 nM); 25 °C; 50 mM Tris pH 7.4, 10 mM NaCl, 10% glycerol, 0.01% Tween-20; global one-state association-then-dissociation fit
T1 construct: Nitric oxide synthase 3 (endothelial NOS), bovine, heterologously expressed in E. coli; called full-length NOS3 in the abstract and discussion; also called eNOS; endothelial nitric oxide synthase; source: E. coli BL21(DE3), purified
T1 sequence (looked up): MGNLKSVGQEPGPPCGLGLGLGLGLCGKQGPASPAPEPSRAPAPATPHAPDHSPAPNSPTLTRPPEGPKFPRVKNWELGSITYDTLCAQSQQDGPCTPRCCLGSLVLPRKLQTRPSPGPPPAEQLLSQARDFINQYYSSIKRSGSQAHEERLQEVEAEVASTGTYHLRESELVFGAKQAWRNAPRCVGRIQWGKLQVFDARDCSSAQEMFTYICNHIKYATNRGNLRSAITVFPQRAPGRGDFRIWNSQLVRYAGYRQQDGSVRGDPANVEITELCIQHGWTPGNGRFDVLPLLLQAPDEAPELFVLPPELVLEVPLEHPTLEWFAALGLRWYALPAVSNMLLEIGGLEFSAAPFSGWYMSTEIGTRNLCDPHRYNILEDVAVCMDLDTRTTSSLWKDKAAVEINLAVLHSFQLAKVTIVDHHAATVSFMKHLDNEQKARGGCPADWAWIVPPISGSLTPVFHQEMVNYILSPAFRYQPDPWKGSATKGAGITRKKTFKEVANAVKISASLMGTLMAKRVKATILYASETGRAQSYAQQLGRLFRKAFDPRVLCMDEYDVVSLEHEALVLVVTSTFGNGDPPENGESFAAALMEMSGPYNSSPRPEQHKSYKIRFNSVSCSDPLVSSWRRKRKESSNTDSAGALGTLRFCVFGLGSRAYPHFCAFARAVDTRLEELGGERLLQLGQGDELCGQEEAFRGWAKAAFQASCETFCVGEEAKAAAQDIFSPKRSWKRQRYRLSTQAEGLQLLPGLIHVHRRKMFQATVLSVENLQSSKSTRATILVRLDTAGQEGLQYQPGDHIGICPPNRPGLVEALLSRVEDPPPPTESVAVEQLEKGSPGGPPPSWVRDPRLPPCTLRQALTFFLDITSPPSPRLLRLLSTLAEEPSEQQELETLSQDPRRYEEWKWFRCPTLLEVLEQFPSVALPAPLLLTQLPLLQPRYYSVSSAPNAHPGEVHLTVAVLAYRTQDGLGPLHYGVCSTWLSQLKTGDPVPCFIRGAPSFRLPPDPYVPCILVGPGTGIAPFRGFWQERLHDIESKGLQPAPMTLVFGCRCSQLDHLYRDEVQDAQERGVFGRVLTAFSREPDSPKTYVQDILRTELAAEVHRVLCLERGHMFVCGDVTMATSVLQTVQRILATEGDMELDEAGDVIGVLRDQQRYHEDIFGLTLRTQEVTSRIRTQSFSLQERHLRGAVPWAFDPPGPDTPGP

[5] = target: B5; test: BLI; biotinylated active GST-JNK1α1 (or the fusion partner alone as control) on streptavidin sensors, NOS3 as analyte at 25-800 nM; 25 °C; 50 mM Tris pH 7.4, 10 mM NaCl, 10% glycerol, 0.01% Tween-20; global one-state association-then-dissociation fit

Kd [1]: 31 nM
koff [1]: 0.00053 s⁻¹
kon [1]: 17000 M⁻¹ s⁻¹
B1: NtMAP peptide (NOS3 N-terminal MAP kinase site) (peptide)
peptide: Biotin-CTPRRCLGSLVFPRKLQGRPSPGPPA
modifications: cysteine pairing not given here
notes: Human NOS3, N-terminal MAP kinase (NtMAP) site with the S114 site; source: synthetic peptide, bought: Biomatik

koff [2]: 0.000534 s⁻¹
kon [2]: 17300 M⁻¹ s⁻¹
B2: NOS3 NtMAP peptide (N-terminal MAP kinase site), biotinylated (peptide)
peptide: Biotin-CTPRRCLGSLVFPRKLQGRPSPGPPA
modifications: cysteine pairing not given here
notes: Human NOS3, N-terminal MAP kinase (NtMAP) site with the S114 site, unphosphorylated; source: synthetic peptide (Biomatik)

koff [2]: 0.000968 s⁻¹
kon [2]: 15900 M⁻¹ s⁻¹
B3: NOS3 AI peptide (autoinhibitory loop site), biotinylated (peptide)
peptide: Biotin-YKIRFNSISCSDPLVSSWRRKRKESSNTDSA
notes: source: synthetic peptide (Biomatik)

Further lines, the binder ahead of its results:

B4: AI peptide (NOS3 autoinhibitory loop site) (peptide)
peptide: Biotin-YKIRFNSISCSDPLVSSWRRKRKESSNTDSA
notes: source: synthetic peptide, bought: Biomatik
Kd [1]: 61 nM
koff [1]: 0.00096 s⁻¹
kon [1]: 16000 M⁻¹ s⁻¹

Binder: B5
KD (fit without the 400 nM trace) [3]: 18 nM

B6: Active GST-JNK1α1 (SignalChem), biotinylated (enzyme, UniProt P45983-2 1-384, looked up)
chain: MSRSKRDNNFYSVEIGDSTFTVLKRYQNLKPIGSGAQGIVCAAYDAILERNVAIKKLSRPFQNQTHAKRAYRELVLMKCVNHKNIIGLLNVFTPQKSLEEFQDVYIVMELMDANLCQVIQMELDHERMSYLLYQMLCGIKHLHSAGIIHRDLKPSNIVVKSDCTLKILDFGLARTAGTSFMMTPYVVTRYYRAPEVILGMGYKENVDLWSVGCIMGEMVCHKILFPGRDYIDQWNKVIEQLGTPCPEFMKKLQPTVRTYVENRPKYAGYSFEKLFPDVLFPADSEHNKLKASQARDLLSKMLVIDASKRISVDEALQHPYINVWYDPSEAEAPPPKIPDKQLDEREHTIEEWKELIYKEVMDLEERTKNGVIRGQPSPLAQVQQ
modifications: active (phosphorylated) form; biotinylated by amine crosslinking to NHS-LC-LC-biotin, 5 : 1 molar ratio of biotin to protein
notes: also called c-Jun N-terminal kinase; source: bought: SignalChem (Lot #X561-2)
koff [4]: 6.19e-05 s⁻¹

Binder: B7
Kd [5]: 15 nM
koff [5]: 6.2e-05 s⁻¹
kon [5]: 4110 M⁻¹ s⁻¹
